Four molecules from paper PMC6141617 (Nature Communications, 2018) can be followed below.

A word on the Kd: it is the concentration at which binding is half-saturated. Read a low Kd as higher affinity. For orientation: stoichiometry N means the number of molecules, sites or subunits per partner or assembly.

For data set [1], the target named is T1, 14-3-3β (purified alone) (human, UniProt P31946 1-239).
T1 construct: also called YWHAB (pTvHR21-SGC)
T1 sequence: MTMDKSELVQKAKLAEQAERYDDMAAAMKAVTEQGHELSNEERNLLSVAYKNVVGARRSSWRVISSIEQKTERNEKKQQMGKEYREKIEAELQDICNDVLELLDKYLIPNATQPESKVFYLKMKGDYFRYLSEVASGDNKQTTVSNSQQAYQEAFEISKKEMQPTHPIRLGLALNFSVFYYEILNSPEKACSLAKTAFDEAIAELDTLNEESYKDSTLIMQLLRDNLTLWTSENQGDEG
In words: fluorescence polarisation. To be noted: both partners purified.

Data set [2] deals with the molecule itself. In words: crystal structure.

B1: GFP-ExoS^233-435 (domain or fragment)
chain: ADKALADGLVKRFGADAEKYLGRQPGGIHSDAEVMALGLYTGIHYADLNRALRQGQELDAGQKLIDQGMSAAFEKSGQAEQVVKTFRGTRGGDAFNAVEEGKVGHDDGYLSTSLNPGVARSFGQGTISTVFGRSGIDVSGISNYKNEKEILYNKETDMRVLLSASDEQGVTRRVLEEAALGEQSGHSQGLLDALDLASKPERS
Regarding B1, the Kd in data set [1] is approximately 70 nM.

B2: GFP-ExoS^233-453 (domain or fragment)
chain: ADKALADGLVKRFGADAEKYLGRQPGGIHSDAEVMALGLYTGIHYADLNRALRQGQELDAGQKLIDQGMSAAFEKSGQAEQVVKTFRGTRGGDAFNAVEEGKVGHDDGYLSTSLNPGVARSFGQGTISTVFGRSGIDVSGISNYKNEKEILYNKETDMRVLLSASDEQGVTRRVLEEAALGEQSGHSQGLLDALDLASKPERSGEVQEQDVRLRMRGLDLA
As to B2, in data set [1], the equilibrium dissociation constant (Kd) is approximately 40 nM.

B3: 14-3-3β truncated after N234 (untagged, re-designed co-expression construct) (domain or fragment, human, UniProt P31946 1-234, looked up)
chain: MTMDKSELVQKAKLAEQAERYDDMAAAMKAVTEQGHELSNEERNLLSVAYKNVVGARRSSWRVISSIEQKTERNEKKQQMGKEYREKIEAELQDICNDVLELLDKYLIPNATQPESKVFYLKMKGDYFRYLSEVASGDNKQTTVSNSQQAYQEAFEISKKEMQPTHPIRLGLALNFSVFYYEILNSPEKACSLAKTAFDEAIAELDTLNEESYKDSTLIMQLLRDNLTLWTSEN
For B3, the “stoichiometry N” value in data set [2] was determined as 2.

B4: 14-3-3β^1–239 (untagged, first co-expression construct) (natural protein)
chain: MTMDKSELVQKAKLAEQAERYDDMAAAMKAVTEQGHELSNEERNLLSVAYKNVVGARRSSWRVISSIEQKTERNEKKQQMGKEYREKIEAELQDICNDVLELLDKYLIPNATQPESKVFYLKMKGDYFRYLSEVASGDNKQTTVSNSQQAYQEAFEISKKEMQPTHPIRLGLALNFSVFYYEILNSPEKACSLAKTAFDEAIAELDTLNEESYKDSTLIMQLLRDNLTLWTSENQGDEG
B4: the “stoichiometry N” value in data set [2] amounted to 2.
